# From the supplement of paper PMC12636428
# System: Saccharomyces cerevisiae
# Assay: transcriptional activation domain activity (GFP:mCherry ratio, weighted mean of sorted bins, harmonized to initial dataset scale) (arbitrary fluorescence ratio units); higher = stronger transcriptional activation
# Settings: beta-estradiol 1 µM; induction time 4 h
# Method in brief: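 Activation activity, the read-weighted mean of bin median fluorescence averaged across barcodes, was linearly mapped onto the scale of the initial dataset. It was measured for barcoded protein tiles fused to an estradiol-inducible synthetic transcription factor at URA3 in GFP-reporter yeast diploids. Cultures diluted 1:5 into SC with 1 uM beta-estradiol were held 4 hours at 30 °C, sorted into 8 bins by GFP:mCherry ratio, and barcode-sequenced, and tiles under 50 reads were discarded.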
row,Sequence,transcriptional activation domain activity
1,QVCFLGLSFRCVIGIDQMRCRSGYCSFVSLLYTLGNLSGVFSGIFAYAFSHLN,66500
2,SFRYHYGELRLSRLNKIHCITRFTWRDFVRGYMTTSTWYQDFFARNFAWLLAV,55900
3,TSKAQESKTKEGDKEEKAATKREKDDSKEEDDDDDNETEEKQAGDKRKKTNGS,30800
4,MALFLGCIDFGQYKLNLEKYSGWLTIPLVPSEQALFYHTVKIIYSIFLHPLRN,66500
5,MLINKLIVLRELCYSDDAAKQIVMYVISLFLSLIFYSFLPCLGLICLSILVPS,49100
6,TFQHLSRTTYEDFVNTKQFFARVRVLRRLYSCNKQEIWQSLIFSTLACLLDRP,60900
7,MGVCGVFISFLAWGGCLVLLNVRLHLRGLIFSLSNLFYDTVHVTCIWFFLFRL,65300
8,QLYCILNPPHLFVFPPKEISSVLFLVGVVHYVLYGLYYMLLLYNLFRFGLLTY,45700
9,LRLDGSYLYFADVREANVEQLRLNFTADDVIFKCLAWSIRHFMILRDNYFGSF,46300
10,GGEGALTVAASARERERERERDREEREKREKRERARESQAVKRKKRPAEKEPP,38000
11,MFSFYMPTPPPFFPFPLVLFFFFFAVHRFHKISTFSTPFFFWIHFIVVLLFSF,58600
12,MCKVSCLGLFGGSFFFFGFGFYLLFYSSFHFSLPGWLVWILYFFFTFFGGSLR,45900
13,DGVTNTPVELGVAKEGGNLEVVNSRTALVVSKHWILLIGLLGRYGMRKDKGVL,49400
14,MAFCSIPFYSPPPPQFRFISTFSPFPRFIIGPLFHPLLARKLFDFLLIFIVSF,62700
15,FGYSPSAVWVFLFCFGQGLISFAFLPFFFYLVSICIIILGGLLFCIWVVYIYQ,28400
16,QKRGLETHHRRSGFWAALRRAEKGKSWVFLFFFFLFFPFFSFFYFFLLFLFLF,21800
17,MGSGDTFFYWKLFSFSLSLLTRFSPLYFGWPFLKTIPLFMYFFLCRVLPLFLM,53400
18,GDEIVVVIQRARPVSAAAASSVTAVKVRRGDVRRAVIVRTRKAVRRPDGRYIR,70400
19,IQTYEIVGLTSCSLNVVLLPFAFYLVTLCFKTSERSPLLSMLCRLFFLPLTCG,45100
20,EVSFVALLLVWTYMRHYLNCKILYSVWTEFDLIPHHFRSWVHEPGYPHDIRGW,45000
21,ANLAFPDDNSTNIQLQPFSESQSQNKFDYDMFFRDSSKEGNNLFGEFLEDDDD,92800

row,Sequence,transcriptional activation domain activity
1,QMLNPLEKILLSLASIVLSSRVSRNLFVLYALGLHFIVLFTLYSVVYVFIFCS,37500
2,KKAKAGDEDEEGGADKASPKKGAKRGRKQVEDEDEDESEEVQPKAKRAKKAVV,24800
3,KSVVLERKLAIGQCRHLFTVNDNWLVSVWNDFHVGIVVRNMVFFLCRLVFDFM,42700
4,RNMRALRKTWQSSASEDGGGGGEGDEHPHLEDLEYTSREWGAFAQGLKLLAVS,70800
5,MVIWRDTLLITLHGLCGGILLRFPSAVNLFHCFIDINSPIGITILTLFVLHLC,70200
6,GKAKASKTAGAGLAKASKAPKVPKAGGKGAKASKGAKAPKASKAAGAAGAKAS,28400
7,DQDAVMEDAPEANAETESQNSRRRRSRGKGRKSGASMAENVKVEQQAEAGSEN,29300
8,YCGSLGCMILVAGIKLLRLLKHHLTVQRALRSNIGKIKAGMLKVKIIMIVGCV,66400
9,MYFASYIFISFFSLFISIIHPFKIYYILLYTHHIIISIQLLLPFHFLTSIILS,80300
10,FIQLVHLWRLILNYGPTGPFNIRMPSHLTWVVIKQHIQQYFFRCLCLLNKDGA,49100
11,NLLYQLGVFVARSSTPFIRLHNLYLPSCLQILNLLLLVSQSLYWWIPSVYLVF,76500
12,SVKHIITLFDDVRQNLAHAGLVALLLAQPHMIVLLTDVWLHMFRYLSAFEITI,52100
13,LCVFDLLVLTTTAFIQSGVYCAFDWTVSTIEVRGVCVLAVLIATIPIVFIAYA,31400
14,PQSANITGACTELGEHTDCPIWNLLDARSLFRSCADLLISSWTWWWLAACRYV,44700
15,LMFLVLIVSNLRLMIENFRKYGVLICIRCHDYRRQDVVYGSILYFLVPCHLFV,73100
16,RSLGIVFYFGLLLSFYFEFFFSSIFSFVIIIWLYPIGFLYICLSAAIPFPLLN,65000
17,NTMQFSMNLGNSTVSGPFSGLVNGLTPKGTNMEPSLWASWSYYALWLPTWGTT,52100
18,MSTLHWNMIFLVFFFWVVDVLFAWIMEVGMMVGVHVAYAYGDCGGPVLFMVPF,71700
19,IARPISFFVLGASAAFTTIRALGPSTHPLISVNYFSLWCTFVSLLALLLCPLL,58700
20,LSLADFAWKLSDGEEKREQCGNVAQILLNTISHRVLRTIIRHLVAVVGVLTPS,60000
21,KVRAKEIVILPSEEDDNYKPLDTSNATTSSSEPRVDVVQEGLFREALNENDGK,32500

row,Sequence,transcriptional activation domain activity
1,MALHALLHLLNVYYQGCLPYNVLVITVCTMLYKLFFSKSFYCRFRRFGRPWYL,54300
2,DVVDHSGDLFIRCNEIFGRQCIRNYIPSDPIWLIPLLGLLHRRLMYKVRLIYP,71700
3,MELFFRLFFWLMSWLLQLTHYFNTFTVLLYIHSLFSGVWFCKVLGFSFFFLYH,51600
4,LCLRLMIKVAFSGEDTEVDFSMLQVAVRYILGIHGVNTLAPAWTFWGKCLDSM,37000
5,MLFSLYLFFYFLFFVCDGYVTMGSVFFFCSCWWCSYYYLTINIGLTNYFFPPL,53300
6,MELYGTHGVFYYYFFVIGFFLDYHSFLSPLLSLLMRIEKDVSGIFFFVFLFFC,63700
7,DINSFTNQQQQAQDNPSFLPLDIEQSSYDLSEDAMSYPIISTQSNRDCTQYDN,68700
8,MQVSNLLLLVLNLCCVVFLLINLDLHSCFFKLILFIFTSCLFNHPLPFQFIFT,51700
9,DDDIAMFDSLATTQPIDIAASNQQNGEIAQLWDFNVDQFNMTPSNSSGSATIS,91100
10,FYMQLCVNIFLASGFIYILYCAWGAIISDVDIEASKHMSEVLVDIALCAKQYN,22900
11,GAAASTPAAPQKPAGGLFGGAGLGAASKPADAAASSSSSGLFGAKPAESAPAA,30900
12,ESEVAVVVHIGANTTAYQFLALCAMMAPMRDLFYAFGRVTIYALAPMFHAVRV,73900
13,HQPGPWESLDMPWAIGWGLGAFPGIPWDVFFFPLWPSTLFPGSPPPSLLEAPS,55500
14,MYISLFITYLYTYILELCFDFLTIFIIYFHFFSASCMLHSISPLLFICFSFFQ,57700
15,AKEERKAKKKAEKEKAAVAGDAMEVDDSADKKEKKEKKRKRRESEAAGAVKVE,13300
16,MEGMQVEQDIARGSRKPHRKSRLGCGNCKQRRVKCDERKPSCDRCVKHNILCD,23800
17,LDDLKLQPIINRYRNCKGLSPSDLRLSLDQLKCLNHQFSVIILRILFKHCPLY,72900
18,MHFAVKVKMQLFFFIFSLTLFFFLWYFFFFFPVVYGVFSSGVLGVFFSLFSFF,66200
19,LSSSPSAQIATNTNVVFILGSDDKRVKEVGDALKTKLGVKGGGKGSKWSGKFG,33200
20,ARKAFLLIEHMLELEGPPLIWNLLEILHNIMHLKQGRLFNMLIIHLMSLARSH,67400
21,MAEDSDPSADGGLPMPYSCYECRNRKLKCDRRKDGCSRCAQAGGKCHYPTSRK,48800

row,Sequence,transcriptional activation domain activity
1,LAQDPAGEQKKRRGRPPRYNVKLEPGEGDGAVTAPVKARKRKRESETPLSAPP,33600
2,FDNSGFQRLESLCACLAAIKSWMDIFLKFPPLEYAHLSFTFWAQLMKCIVVLY,61900
3,AKDGELQTKKPRQRKPKAPAATGDADILEVKPKRTRTTRPKVSSYFAEPAAPL,< 6570
4,RAMYAPGFVELTLSYGTGGVTLYARYRSMIDALLKRPHATAFIFAGGYLSWLA,52600
5,QRTNEDLDVDYVPYDHMGISFWDHLDPSRIAVPSHHNIFRIVVWLFFLVVYSQ,53700
6,ERDMELLVGHFDFMAKEAFLADSISLCSTEEELERRLDTPVIQEDSPVMDNNT,62900
7,PPSLVDLVANTIAACHSETTPETVSLQIVKALLSLVLSSTILVHHSSLLKAVR,50700
8,FDYMICPVHDLGIPAPLSVFLSTVLNRAVTTIPYAPYQTHLFFLSCFVSLVAP,40500
9,KNGWHIIGSSNNVVAYRLRVYQCMDLTTFFSLQAAFSDCERYFVASAIVLDKK,38500
10,MPGLCIWYGVFWVVGFFSFFLLVLRVMGFLVCVFVRLVCVCFFRAFDICFFFS,34500
11,CRLLSSSVFLFSFFPFFLFFFYCLLVFFAWFLILRGCFVVHCLCKFGYDWTGG,30300
12,MPVLPKSSSTKRAGAPKAKGAVRAKSGCYTCRIRRKKCDENPDDAGQCQTCVR,36600
13,TDILKFWHLVVHNGMLERAKGLVSITLTSDTRFVFKAISWRLVMLPRLKYLAL,76100
14,TNSEEDALDAWDLCATKMSLALVQLVQMFEEKELLSSLNVLLRLVTRISTAIP,45700
15,SAKSLRLTVDEVKMLHRPALWYLIVGLVDTVAAARLRYFSFILHRPPLRQTLS,47800
16,PRVLHGLELICHIAYLIIILHFIFDWRIDGHMPEWRFYGAREYILFIYSLSIL,31100
17,QYETPAPKDFLDDFVSLTDFFTFFDDPVDLYDVGSFAFQQPHSMNIDFDPAML,152000
18,GSKIILVVEQCMCVVIWGCKVCFLLIFWKLAWGLRVRLLIKLVASYVVATFLV,65900
19,EQQCICNYITSDPIWLIPLLGLLHRRLMYKVRLIYPFHISLANAFVTVCFHWL,80900
20,MGNKQDGVSGLGFMLISFSCLLLEWLTCAVSSILLSSEFWELSLVCLTLFWFL,28900
